Changes are numbered by the printed parent chain.

Sequences and labels used below:
B1: 268— Phe (protein, UniProt P62694 18-513, looked up, variant R268F)
Exoglucanase 1: QSACTLQSETHPPLTWQKCSSGGTCTQQTGSVVIDANWRWTHATNSSTNCYDGNTWSSTLCPDNETCAKNCCLDGAAYASTYGVTTSGNSLSIGFVTQSAQKNVGARLYLMASDTTYQEFTLLGNEFSFDVDVSQLPCGLNGALYFVSMDADGGVSKYPTNTAGAKYGTGYCDSQCPRDLKFINGQANVEGWEPSSNNANTGIGGHGSCCSEMDIWEANSISEALTPHPCTTVGQEICEGDGCGGTYSDNFYGGTCDPDGCDWNPYRLGNTSFYGPGSSFTLDTTKKLTVVTQFETSGAINRYYVQNGVTFQQPNAELGSYSGNELNDDYCTAEEAEFGGSSFSDKGGLTQFKKATSGGMVLVMSLWDDYYANMLWLDSTYPTNETSSTPGAVRGSCSTSSGVPAQVESQSPNAKVTFSNIKFGPIGSTGNPSGGNPPGGNRGTTTTRRPATTTGSSPGPTQSHYGQCGGIGYSGPTVCASGTTCQVLNPYYSQCL
B2: 268— Ser (protein, UniProt P62694 18-513, looked up, variant R268S)
Exoglucanase 1: B1 Exoglucanase 1 with F251S
B3: 268— Asn (protein, UniProt P62694 18-513, looked up, variant R268N)
Exoglucanase 1: B1 Exoglucanase 1 with F251N
B4: 268A+411— Val (protein, UniProt P62694 18-513, looked up, variant R268A R411V)
Exoglucanase 1: B1 Exoglucanase 1 with F251A, R394V
B5: 268A+411— Cys (protein, UniProt P62694 18-513, looked up, variant R268A R411C)
Exoglucanase 1: B1 Exoglucanase 1 with F251A, R394C
B6: 268_+411A Val (protein, UniProt P62694 18-513, looked up, variant R268V R411A)
Exoglucanase 1: B1 Exoglucanase 1 with F251V, R394A
B7: 268A+411— Leu (protein, UniProt P62694 18-513, looked up, variant R268A R411L)
Exoglucanase 1: B1 Exoglucanase 1 with F251A, R394L
B8: 268— Thr (protein, UniProt P62694 18-513, looked up, variant R268T)
Exoglucanase 1: B1 Exoglucanase 1 with F251T
B9: 268_+411A Ile (protein, UniProt P62694 18-513, looked up, variant R268I R411A)
Exoglucanase 1: B1 Exoglucanase 1 with F251I, R394A
B10: 268— Glu (protein, UniProt P62694 18-513, looked up, variant R268E)
Exoglucanase 1: B1 Exoglucanase 1 with F251E
B11: 268_+411A Ala (protein, UniProt P62694 18-513, looked up, variant R268A R411A)
Exoglucanase 1: B1 Exoglucanase 1 with F251A, R394A
B12: 268— His (protein, UniProt P62694 18-513, looked up, variant R268H)
Exoglucanase 1: B1 Exoglucanase 1 with F251H
B13: 268— Cys (protein, UniProt P62694 18-513, looked up, variant R268C)
Exoglucanase 1: B1 Exoglucanase 1 with F251C
B14: 268A+411— Asp (protein, UniProt P62694 18-513, looked up, variant R268A R411D)
Exoglucanase 1: B1 Exoglucanase 1 with F251A, R394D
B15: 268A+411— Glu (protein, UniProt P62694 18-513, looked up, variant R268A R411E)
Exoglucanase 1: B1 Exoglucanase 1 with F251A, R394E
B16: 268_+411A Pro (protein, UniProt P62694 18-513, looked up, variant R268P R411A)
Exoglucanase 1: B1 Exoglucanase 1 with F251P, R394A
B17: 268A+411— Ile (protein, UniProt P62694 18-513, looked up, variant R268A R411I)
Exoglucanase 1: B1 Exoglucanase 1 with F251A, R394I
B18: 268— Tyr (protein, UniProt P62694 18-513, looked up, variant R268Y)
Exoglucanase 1: B1 Exoglucanase 1 with F251Y
B19: 268A+411— Trp (protein, UniProt P62694 18-513, looked up, variant R268A R411W)
Exoglucanase 1: B1 Exoglucanase 1 with F251A, R394W
B20: 268A+411— Gly (protein, UniProt P62694 18-513, looked up, variant R268A R411G)
Exoglucanase 1: B1 Exoglucanase 1 with F251A, R394G
B21: 268A+411— Ala (protein, UniProt P62694 18-513, looked up, variant R268A R411A)
Exoglucanase 1: B1 Exoglucanase 1 with F251A, R394A
B22: 268— Trp (protein, UniProt P62694 18-513, looked up, variant R268W)
Exoglucanase 1: B1 Exoglucanase 1 with F251W
B23: 268— Asp (protein, UniProt P62694 18-513, looked up, variant R268D)
Exoglucanase 1: B1 Exoglucanase 1 with F251D
B24: 268_+411A Trp (protein, UniProt P62694 18-513, looked up, variant R268W R411A)
Exoglucanase 1: B1 Exoglucanase 1 with F251W, R394A
B25: 268_+411A Arg (protein, UniProt P62694 18-513, looked up, variant R411A)
Exoglucanase 1: B1 Exoglucanase 1 with F251R, R394A

A short description of the first experiment: 4-MUL cellobiose tolerance/inhibition assay, dose-response IC50 (Example 2). To be noted: 1 mM cellobiose; primary screening; n=1. It is filed as biochemical. A digest of the protocol:
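CBH I variant supernatants (5 μg/mL final, or undiluted if lower) on 0.5 mM 4-MUL in 100 mM MES pH 6 with 25 mM gluconolactone, fluorescence ex/em 365/450 nm. Activity measured at 6–8 cellobiose levels up to 100 mM; IC50 from four-parameter fit, bottom constrained to knockout background.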
For the molecule B1, the “Tolerance at 1 mM CB (MUL Data)” value is 21%.
Still for that read-out and setting: under B2 stands 45%; under B3, 41%; under B4, 102%.
On the same count and under the same terms, under B5 stands 85%; under B6, 93%; under B7, 99%.
B8: the “Tolerance at 1 mM CB (MUL Data)” value stood at 42%.
The same measure, in the same setting: then B9, with 90%.
On the same count and under the same terms, then B10, with 52%.
For the molecule B11, the “Tolerance at 1 mM CB (MUL Data)” value is listed as 65%.
Same read-out and setting: then B12, with 20%.
Still for that read-out and setting: then B13, with 35%; and B14, with 93%; and B15, with 95%.
The same measure, in the same setting: under B16 stands 80%.
As to B17, the “Tolerance at 1 mM CB (MUL Data)” value came to 107%.
Same read-out and setting: under B18 stands 35%.
Still for that read-out and setting: then B19, with 97%.
The same measure, in the same setting: then B20, with 91%.
For the molecule B21, the “Tolerance at 1 mM CB (MUL Data)” value amounted to 83%.
The same measure, in the same setting: under B22 stands 42%; under B23, 44%; under B24, 84%.
Same read-out and setting: under B25 stands 72%.

Staying with this experiment, now noted: primary screening; 10 μL enzyme; cellobiose range 0.0001-100 mM; n=1; read-out: IC50 (MUL Data).
B1: the IC50 was 0.4 mM.
The same measure, in the same setting: then B2, with 0.74 mM.
On the same count and under the same terms, under B3 stands 0.67 mM; under B4, 15.1 mM; under B5, 7.66 mM.
The same measure, in the same setting: under B6 stands 7.48 mM; under B7, 25.1 mM.
As to B8, the IC50 amounted to 0.6 mM.
Turning to B9, the IC50 amounted to 10.4 mM.
On to B10, for which the IC50 was found to be 0.87 mM.
The same measure, in the same setting: then B11, with 1.33 mM.
Still for that read-out and setting: then B12, with 0.25 mM.
Still for that read-out and setting: under B13 stands 0.52 mM; under B14, 10.2 mM; under B15, 16.9 mM.
Take B16: the IC50 amounted to 7.31 mM.
For the molecule B17, the IC50 stood at 28 mM.
The same measure, in the same setting: then B18, with 0.45 mM; and B19, with 28.4 mM.
The same measure, in the same setting: then B20, with 12.1 mM.
Same read-out and setting: under B21 stands 5.56 mM; under B22, 0.61 mM; under B23, 0.9 mM.
Take B24: the concentration for half-maximal inhibition (IC50) was determined as 7.01 mM.
On to B25, for which the IC50 amounted to 1.6 mM.

The next experiment in a line: 4-MUL assay, specific activity (Example 2). The settings on record: primary screening; 10 μL enzyme; n=1. The experiment is classed as biochemical. The procedure:
CBH I activity on was measured using the 4-MUL assay using gluconolactone to inhibit any BG activity. The fluorogenic 4-MUL substrate (SIGMA) was prepared at 100 mM concentration in DMSO. Assays were run in black 96-well-flat-bottomed plates (Costar) and 4-MU fluorescence was read on a BioTek H4 plate reader (ex/em 365/450 nm). Assay plates were filled with buffer (final concentrations of 100 mM MES, pH 6, 25 mM gluconolactone, with or without cellobiose; cellobiose concentrations are listed with appropriate data sets), to which enzyme mixture was added (10-30 μl, 5 μg/mL final) and then assays were initiated by addition of 4-MUL (0.5 mM final concentration in 100 μl total volume). Enzyme mixtures were either CBH I variants from harvested supernatants or standards. Standards included: a negative control, consisting of harvested supernatant from the CBH I knock-out strain; a positive control, consisting of wild-type CBH I from harvested supernatants; and, a commercial CBH I standard (E-CBHI from Megazymes). Activity standards were run by serial dilution of commercial CBH I from 40 to 0.02 μg/mL and 4-MU (SIGMA, prepared at 20 mM in DMSO) (in dilution increments of 2-fold; all dilutions were made using harvested supernatant from the knock-out control). Kinetic rates were monitored over the first 15 mins following 4-MUL addition; initial rates were calculated based on data in the linear range. After 1 hr, a final endpoint read was taken, both before and after reaction quenching (100 μL of 200 mM Sodium Carbonate, pH 10.0). Activity was calculated for kinetic and endpoint reads; background resulting from the CBH I knock-out supernatant remained negligible. 4MU standard curves and HPLC quantification values were used to calculate specific activity.
The specific activity (SA) of the variant library was evaluated in a secondary 4-MUL assay. […] On average, a mutation at position 268 increases the specific activity by 2.5 fold over that of wild type. A mutation at 268 in combination with 411 is around 1.5-1.6 fold higher than wild-type, on average.
Take B1: the “SA (μmol 4 MU/min/mg) (MUL Data)” value was determined as 0.70 μmol 4 MU/min/mg.
Same read-out and setting: under B2 stands 1.00 μmol 4 MU/min/mg; under B3, 13.97 μmol 4 MU/min/mg.
Same read-out and setting: under B4 stands 1.39 μmol 4 MU/min/mg; under B5, 1.58 μmol 4 MU/min/mg.
On the same count and under the same terms, then B6, with 1.33 μmol 4 MU/min/mg; and B7, with 1.72 μmol 4 MU/min/mg; and B8, with 0.97 μmol 4 MU/min/mg.
For B9, the “SA (μmol 4 MU/min/mg) (MUL Data)” value stood at 0.89 μmol 4 MU/min/mg.
Still for that read-out and setting: then B10, with 0.88 μmol 4 MU/min/mg.
On the same count and under the same terms, then B11, with 0.52 μmol 4 MU/min/mg; and B12, with 1.21 μmol 4 MU/min/mg; and B13, with 0.86 μmol 4 MU/min/mg.
The same measure, in the same setting: under B14 stands 2.12 μmol 4 MU/min/mg; under B15, 0.74 μmol 4 MU/min/mg; under B16, 1.80 μmol 4 MU/min/mg.
As to B17, the “SA (μmol 4 MU/min/mg) (MUL Data)” value is 0.58 μmol 4 MU/min/mg.
The same measure, in the same setting: then B18, with 0.65 μmol 4 MU/min/mg; and B19, with 3.07 μmol 4 MU/min/mg.
Same read-out and setting: then B20, with 0.88 μmol 4 MU/min/mg.
Still for that read-out and setting: under B21 stands 1.19 μmol 4 MU/min/mg; under B22, 1.31 μmol 4 MU/min/mg.
Take B23: the “SA (μmol 4 MU/min/mg) (MUL Data)” value was determined as 0.67 μmol 4 MU/min/mg.
For the molecule B24, the “SA (μmol 4 MU/min/mg) (MUL Data)” value is on record as 0.81 μmol 4 MU/min/mg.
For B25, the “SA (μmol 4 MU/min/mg) (MUL Data)” value came to 0.38 μmol 4 MU/min/mg.

As a reminder, the IC50 is the concentration that inhibits the measured activity by half.

Source of the values: US20140287471A1, “VARIANT CBH I POLYPEPTIDES WITH REDUCED PRODUCT INHIBITION” (BP CORPORATION NORTN AMERICA INC., priority 2011, published 2014).
